Where no end group is shown, it is not given here. [ ]: non-standard residue; d: D form. Nle = CCCC[C@H](N)C(=O)O
T1: recombinant KDM5C (Homo sapiens (Human), UniProt P41229 1-765)
T1 construct: Expressed in SF9 cells from baculovirus, purified on Ni-NTA and detected with an anti-His antibody; also called KDM5C-His6; JARID1CA-c022; not shown: His tag (KDM5C-His6, vector pFB-CT10HF-LIC)
T1 sequence: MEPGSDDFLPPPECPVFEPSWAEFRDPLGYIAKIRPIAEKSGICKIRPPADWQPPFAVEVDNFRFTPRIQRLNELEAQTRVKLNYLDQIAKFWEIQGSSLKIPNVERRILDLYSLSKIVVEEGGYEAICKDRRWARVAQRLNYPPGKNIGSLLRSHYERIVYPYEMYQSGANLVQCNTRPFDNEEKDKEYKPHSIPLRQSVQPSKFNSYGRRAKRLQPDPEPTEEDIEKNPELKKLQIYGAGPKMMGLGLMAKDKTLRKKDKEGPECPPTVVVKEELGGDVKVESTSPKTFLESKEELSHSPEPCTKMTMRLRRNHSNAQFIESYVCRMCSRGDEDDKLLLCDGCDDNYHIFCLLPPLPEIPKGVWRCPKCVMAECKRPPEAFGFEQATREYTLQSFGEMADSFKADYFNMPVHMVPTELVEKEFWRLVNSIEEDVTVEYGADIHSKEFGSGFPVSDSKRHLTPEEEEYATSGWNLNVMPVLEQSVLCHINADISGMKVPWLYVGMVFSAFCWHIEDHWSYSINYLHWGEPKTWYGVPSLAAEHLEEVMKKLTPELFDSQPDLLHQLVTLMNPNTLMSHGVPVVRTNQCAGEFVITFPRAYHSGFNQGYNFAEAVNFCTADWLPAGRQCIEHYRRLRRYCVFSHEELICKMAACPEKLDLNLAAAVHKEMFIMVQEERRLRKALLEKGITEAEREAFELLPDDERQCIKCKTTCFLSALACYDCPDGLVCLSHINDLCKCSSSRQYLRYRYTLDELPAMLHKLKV

B1: EP4 (peptide)
peptide: TEDSKTHHH
modifications: also: fluorescein label in FP assay, end not given here
notes: Fluorescein-labelled in the fluorescence polarization assay; also called EP4 peptide

These binders were tested against T1, recombinant KDM5C (assay: OPAL peptide arrays on cellulose probed with 1 uM His-tagged KDM5C, anti-His-HRP chemiluminescence;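 also: binding of target protein to each arrayed peptide after overnight incubation at 4 °C, read as densitometric chemiluminescence signal intensity per spot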).
Description: The potential inhibitor peptides were initially screened based on the binding affinity between the peptides and target proteins. All the steps were carried out at room temperature unless otherwise stated. The OPAL cellulose macro arrays are presoaked in 100% ethanol followed by 50% ethanol for 15 min with constant rocking. The membrane is then washed with distilled water three times each of 15 min. The processed membrane is first blocked with 5% nonfat dry milk in Tris buffered saline containing 0.05% Tween 20 (TBST) for 1 hr at room temperature. Finally, the array was equilibrated with peptide binding buffer (50 mM Tris-CI, 350 mM NaCl, 10% glycerol, 0.5 mM DTT and 0.05% Tween20). The array was then incubated with 1 μM of target protein overnight at 4° C. under rotation. The excess protein was washed away by three consecutive 10 min washes with TBST. Each array was then incubated with HRP conjugated anti-His antibody (1:5000) in TBST for 1 hr. The array was then washed thrice each of 10 min. The signals were detected using chemiluminescence. The signal intensities observed were subjected to densitometry analysis using ImageJ software protein array analyzer.

Binder	binding result
SDQQKTHHH [EP10]	binds
SDQTKTHHH [EP12]	binds
TDDQ[Nle]THHH [EP33]	binds
TEDT[Nle]THHH [EP28]	binds
TDTN[Nle]THHH [EP23]	binds
TDTQ[Nle]THHH [EP22]	binds
TEEQ[Nle]THHH [EP29]	binds
TDTS[Nle]THHH [EP27]	binds
TDST[Nle]THHH [EP37]	binds
TEES[Nle]THHH [EP35]	binds
TEEN[Nle]THHH [EP34]	binds
TEDQ[Nle]THHH [EP25]	binds
TDDN[Nle]THHH [EP40]	binds
TDTT[Nle]THHH [EP21]	binds
TEDS[Nle]THHH [EP24]	binds
RTKQTARKSTGG [EP41]	binds
SETQKTHHH [EP18]	binds
SETSKTHHH [EP19]	binds
GAKRHR[Nle]VLRDNI [EP44]	binds
SDQQ[Nle]THHH [EP30]	binds
SDQT[Nle]THHH [EP32]	binds

Binder	binding result
TTQS[Nle]THHH [EP26]	binds
TTQQ[Nle]THHH [EP31]	binds
TTQT[Nle]THHH [EP36]	binds
TTQSKTHHH [EP6]	binds
TTQTKTHHH [EP16]	binds
TTQQKTHHH [EP11]	binds
GAKRHRKVLRDNI [EP43]	binds
TDDQKTHHH [EP13]	binds
TDTTKTHHH [EP1]	binds
TEESKTHHH [EP15]	binds
TEDTKTHHH [EP8]	binds
TDSTKTHHH [EP17]	binds
TDTSKTHHH [EP7]	binds
TEEQKTHHH [EP9]	binds
TDTQKTHHH [EP2]	binds
TEENKTHHH [EP14]	binds
TDDNKTHHH [EP20]	binds
TEDQKTHHH [EP5]	binds
TDTNKTHHH [EP3]	binds
SETQ[Nle]THHH [EP38]	binds
SETS[Nle]THHH [EP39]	binds

The binders below were run against T1, recombinant KDM5C (assay: fluorescence polarization; fluorescein-labelled peptide, recombinant KDM5C serially diluted).
Description: Recombinant KDM5C protein was serially diluted in a 384-well plate, followed by the addition of fluorescein-labeled inhibitor peptide in PBS buffer. The mixtures were incubated in the dark for 30 min prior to fluorescent polarization measurements at room temperature on an EnVision Multilabel Plate Reader (PerkinElmer) with the excitation set at 480 nm and emission at 535 nm. Binding curves were generated by fitting the binding data to a hyperbolic nonlinear regression model using Prism 3.0 (GraphPad software, Inc., San Diego, Calif.), which also produced the corresponding dissociation constants (Kd).

Binder	Kd [nM]
B1	0.11

— patent publication US20220184221A1 (NUVOBIO, published 2022)
